From publication PMC10397247
Values belong to the binder of their own block, whether it stands above or below them.

Tests used:
APC9319-AA = biological target: T1, APC9319-AA; assay: two-hybrid library CCmax; details: mean of both orientations;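 note: natural log of median RNA to DNA barcode read ratio; higher means stronger binding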
T1 chain: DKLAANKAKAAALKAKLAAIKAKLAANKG

APC8910-AA = biological target: T2, APC8910-AA; assay: two-hybrid library CCmax;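 note: natural log of median RNA to DNA barcode read ratio; higher means stronger binding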
T2 chain: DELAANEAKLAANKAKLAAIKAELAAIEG

APC9096-AA = biological target: T3, APC9096-AA; assay: two-hybrid library CCmax; details: mean of both orientations;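 note: natural log of median RNA to DNA barcode read ratio; higher means stronger binding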
T3 chain: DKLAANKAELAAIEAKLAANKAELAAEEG

4H717-bH = biological target: T4, 4H717-bH; assay: two-hybrid library CCNG1;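 note: natural log of median RNA to DNA barcode read ratio; higher means stronger binding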
T4 chain: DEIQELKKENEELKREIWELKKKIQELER

4H72-bH = biological target: T5, 4H72-bH; assay: two-hybrid library CCNG1;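 note: natural log of median RNA to DNA barcode read ratio; higher means stronger binding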
T5 chain: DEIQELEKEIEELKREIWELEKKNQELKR

4H883-bN = biological target: T6, 4H883-bN; assay: two-hybrid library CCNG1;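 note: natural log of median RNA to DNA barcode read ratio; higher means stronger binding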
T6 chain: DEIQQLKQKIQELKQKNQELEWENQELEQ

4H754-bH = biological target: T7, 4H754-bH; assay: two-hybrid library CCNG1
T7 chain: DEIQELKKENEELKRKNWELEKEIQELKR

4H883-bH = biological target: T8, 4H883-bH; assay: two-hybrid library CCNG1
T8 chain: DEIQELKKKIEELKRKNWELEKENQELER

4H918-bH = biological target: T9, 4H918-bH; assay: two-hybrid library CCNG1
T9 chain: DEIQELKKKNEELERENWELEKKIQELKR

4H797-bH = biological target: T10, 4H797-bH; assay: two-hybrid library CCNG1
T10 chain: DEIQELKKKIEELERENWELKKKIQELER

4H953-bH = biological target: T11, 4H953-bH; assay: two-hybrid library CCNG1
T11 chain: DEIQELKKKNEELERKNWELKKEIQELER

4H908-bH = biological target: T12, 4H908-bH; assay: two-hybrid library CCNG1
T12 chain: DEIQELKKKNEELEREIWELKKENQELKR

4H967-bH = biological target: T13, 4H967-bH; assay: two-hybrid library CCNG1
T13 chain: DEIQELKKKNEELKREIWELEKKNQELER

4H87-AA = biological target: T14, 4H87-AA; assay: two-hybrid library CCmax
T14 chain: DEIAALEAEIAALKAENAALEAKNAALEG

4H3939-AA = biological target: T15, 4H3939-AA; assay: two-hybrid library CCmax; details: mean of both orientations
T15 chain: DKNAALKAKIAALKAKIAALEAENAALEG

4H428-AA = biological target: T16, 4H428-AA; assay: two-hybrid library CCmax; details: mean of both orientations
T16 chain: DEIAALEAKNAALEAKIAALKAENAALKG

4H478-AA = biological target: T17, 4H478-AA; assay: two-hybrid library CCmax; details: mean of both orientations
T17 chain: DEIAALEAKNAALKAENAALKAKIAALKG

4H3666-AA = biological target: T18, 4H3666-AA; assay: two-hybrid library CCmax; details: mean of both orientations
T18 chain: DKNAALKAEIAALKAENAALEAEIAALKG

4H497-AA = biological target: T19, 4H497-AA; assay: two-hybrid library CCmax; details: mean of both orientations
T19 chain: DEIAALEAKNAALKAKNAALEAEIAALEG

4H3628-AA = biological target: T20, 4H3628-AA; assay: two-hybrid library CCmax
T20 chain: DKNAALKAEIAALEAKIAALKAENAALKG

4H3709-AA = biological target: T21, 4H3709-AA; assay: two-hybrid library CCmax; details: mean of both orientations
T21 chain: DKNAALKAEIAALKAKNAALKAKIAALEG

4H675-AA = biological target: T22, 4H675-AA; assay: two-hybrid library CCmax; details: mean of both orientations
T22 chain: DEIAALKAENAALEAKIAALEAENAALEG

4H3920-AA = biological target: T23, 4H3920-AA; assay: two-hybrid library CCmax; details: mean of both orientations
T23 chain: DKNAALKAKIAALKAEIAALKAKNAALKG

4H656-AA = biological target: T24, 4H656-AA; assay: two-hybrid library CCmax; details: mean of both orientations
T24 chain: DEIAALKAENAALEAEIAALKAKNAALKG

4H971-AA = biological target: T25, 4H971-AA; assay: two-hybrid library CCmax; details: mean of both orientations
T25 chain: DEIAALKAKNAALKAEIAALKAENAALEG

4H391-AA = biological target: T26, 4H391-AA; assay: two-hybrid library CCmax; details: mean of both orientations
T26 chain: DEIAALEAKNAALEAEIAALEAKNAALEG

4H932-bA = biological target: T27, 4H932-bA; assay: two-hybrid library CCNG1
T27 chain: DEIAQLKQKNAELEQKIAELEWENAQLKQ

4H968-bH = biological target: T28, 4H968-bH; assay: two-hybrid library CCNG1
T28 chain: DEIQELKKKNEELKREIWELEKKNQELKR

interaction score (APC9319-AA): -2.07
interaction score (APC8910-AA): -2.88
interaction score (APC9096-AA): -2.09
B1: APC8910-AA (peptide)
chain: DELAANEAKLAANKAKLAAIKAELAAIEG

interaction score (4H717-bH): 0.358
interaction score (4H72-bH): -0.629
interaction score (4H883-bN): -0.103
interaction score (4H754-bH): 0.538
interaction score (4H883-bH): -0.589
interaction score (4H918-bH): 0.0812
interaction score (4H797-bH): -1.17
interaction score (4H953-bH): -0.135
interaction score (4H908-bH): -1.59
interaction score (4H967-bH): -0.767
B2: 4H717-bH (peptide)
chain: DEIQELKKENEELKREIWELKKKIQELER

interaction score (4H87-AA): -0.571
B3: 4H87-AA (peptide)
chain: DEIAALEAEIAALKAENAALEAKNAALEG

interaction score (4H3939-AA): 0.744
interaction score (4H428-AA): -0.847
interaction score (4H478-AA): -2.19
interaction score (4H3666-AA): -1.56
interaction score (4H497-AA): -1.67
interaction score (4H3628-AA): 0.286
interaction score (4H3709-AA): -1.58
interaction score (4H675-AA): -1.51
interaction score (4H3920-AA): 0.724
interaction score (4H656-AA): -1.43
interaction score (4H971-AA): -1.01
interaction score (4H391-AA): -1.27
B4: 4H3628-AA (peptide)
chain: DKNAALKAEIAALEAKIAALKAENAALKG

interaction score (4H932-bA): -1.28
interaction score (4H918-bH): 1.26
interaction score (4H968-bH): -0.174
interaction score (4H953-bH): -0.806
interaction score (4H967-bH): -0.25
B5: 4H918-bH (peptide)
chain: DEIQELKKKNEELERENWELEKKIQELKR
